Assay results from PMC5775921 (Chemical biology & drug design, 2017).
Ends that are not written are not given here.

Legend:
HER3 = HER3 (UniProt P21860); assay: SPR
[1] = target: recombinant extracellular domain of EGFR protein (Homo sapiens, UniProt P00533); assay: SPR binding to immobilized EGFR extracellular domain; details: peptide 0 to 200 μM as analyte

HER3, sequence (P21860 20-1342): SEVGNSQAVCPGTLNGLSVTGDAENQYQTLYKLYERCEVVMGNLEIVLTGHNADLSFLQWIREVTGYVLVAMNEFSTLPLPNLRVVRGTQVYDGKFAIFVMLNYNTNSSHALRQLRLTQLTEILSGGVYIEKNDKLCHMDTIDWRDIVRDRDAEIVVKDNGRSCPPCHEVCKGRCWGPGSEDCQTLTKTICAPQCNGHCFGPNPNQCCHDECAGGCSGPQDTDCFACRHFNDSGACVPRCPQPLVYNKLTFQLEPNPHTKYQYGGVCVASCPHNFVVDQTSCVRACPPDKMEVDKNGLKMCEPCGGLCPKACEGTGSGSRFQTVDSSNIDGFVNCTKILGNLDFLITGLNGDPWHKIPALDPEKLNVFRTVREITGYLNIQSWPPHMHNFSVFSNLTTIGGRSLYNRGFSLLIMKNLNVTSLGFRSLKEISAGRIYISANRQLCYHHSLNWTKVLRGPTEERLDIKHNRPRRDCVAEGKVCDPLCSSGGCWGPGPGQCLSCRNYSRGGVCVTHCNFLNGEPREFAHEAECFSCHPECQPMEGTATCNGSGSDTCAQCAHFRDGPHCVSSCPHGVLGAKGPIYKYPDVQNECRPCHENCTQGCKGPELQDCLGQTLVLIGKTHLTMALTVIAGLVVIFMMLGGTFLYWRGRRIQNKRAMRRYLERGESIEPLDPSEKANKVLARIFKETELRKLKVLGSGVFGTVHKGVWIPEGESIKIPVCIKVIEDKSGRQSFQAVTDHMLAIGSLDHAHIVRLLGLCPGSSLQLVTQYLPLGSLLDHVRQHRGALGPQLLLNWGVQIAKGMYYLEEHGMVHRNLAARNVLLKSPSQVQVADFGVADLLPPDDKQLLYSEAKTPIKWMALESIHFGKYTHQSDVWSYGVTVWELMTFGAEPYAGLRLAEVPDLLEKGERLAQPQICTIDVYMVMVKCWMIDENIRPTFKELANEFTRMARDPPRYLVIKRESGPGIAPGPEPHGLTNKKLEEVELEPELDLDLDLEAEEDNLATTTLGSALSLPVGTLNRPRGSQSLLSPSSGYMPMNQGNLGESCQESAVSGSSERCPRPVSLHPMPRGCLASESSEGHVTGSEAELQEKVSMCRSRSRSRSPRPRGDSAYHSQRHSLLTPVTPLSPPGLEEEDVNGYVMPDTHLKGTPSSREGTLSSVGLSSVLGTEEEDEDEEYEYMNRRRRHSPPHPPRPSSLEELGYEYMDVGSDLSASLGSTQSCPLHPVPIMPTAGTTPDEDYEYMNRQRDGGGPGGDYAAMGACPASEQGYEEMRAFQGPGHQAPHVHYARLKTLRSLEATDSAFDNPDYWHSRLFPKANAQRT

Row | Kd (HER3) [µM] | Substance | binding to EGFR as seen by SPR [1]
1 | 50 | Cyclo.L1.1: Cyclo(K(N3)larllt) (peptide) | –
2 | – | GLARLLT-CONH2 (GLARLLT-NH2) [Peptide L1.6] | exhibited binding to the EGFR protein in a concentration-dependent manner
3 | – | tllarl-CONH2 [Peptide L1.3] | exhibited binding to the EGFR protein in a concentration-dependent manner
